Key:
Type in all cases: cell-based, human
[1] = test system: DLD1 and U20S cells; test: Mitotic index of stably transfected DLD1 and U20S cells in response to nocodazole
Description: (§1) Stable transfectants were prepared by transfecting DLD1 or U20S cells with 5 μg pSV2-HAchfr or pSV2-HAchfr-M580, or 5 μg pSV2 vector without insert and 1 μg pSV7neo plasmid [Wieczorek et al., supra] using Fugene-6 transfection reagent (Roche). Stably transfected cells were selected with G418. For transient expression, DLD1 or U20S cells were transfected with 5 μg pSV2-HAchfr or pSV2-HAchfrM580 or pSV2 plasmid without insert and 2 μg of a plasmid expressing green fluorescent protein using Fugene-6. SAOS2 cells were transfected as described above, except that the plasmids expressing Chfr were cotransfected with a plasmid expressing green fluorescent protein (GFP).
(§2) Cells were grown on 8-well culture slides coated with human fibronectin (Becton Dickinson) and were examined as either non-synchronized or synchronized cells. […] The slides were sealed with coverslips using Fluoromount-G (Upstate Biotechnology) and visualized with a fluorescence microscope (Leica). […]
To determine whether Chfr accounted for the different response, DLD1 and U20S cells were prepared to stably express HA-tagged wild-type Chfr or Chfr with the […] substitution (M580) or just the neo selectable marker. […] Furthermore, the different effects of wild-type Chfr and Chfr-M580 could not be attributed to differences in protein expression, as determined by immunoblotting. […]

[2] = test system: SAOS2 cells; test: Mitotic index of transiently-transfected SAOS2 cells exposed to the TAXOL drug; settings: SAOS2, TAXOL drug added 36 hours after transfection; 12, 14 and 16 hour timepoints
Description: as §1, §2
Chfr-ΔFHA, a Chfr protein with deletion of residues 2–142 encompassing the FHA domain, was identified as a dominant negative mutant by studying its function in DLD 1 cells. […] 36 hours later, mitotic stress was induced by exposure to the TAXOL™ drug and the mitotic index was determined 8 to 16 hours late. Protein levels were determined by immunoblotting with an antibody that recognizes the N-terminal HA tag of the expressed Chfr proteins. […]

[3] = test system: DLD1 cells; test: Entry into metaphase of synchronized DLD1-neo and DLD1-chfr cells under mitotic stress; settings: synchronized DLD1-chfr vs DLD1-neo; drug added 12 hours after release from the G1-S block
Description: All cancer cells were grown in DMEM supplemented with glutamine, penicillin, streptomycin and 10% fetal bovine serum (Life Sciences). Normal human epidermal keratinocytes and osteoblasts were grown in KGM2 and OGM media, respectively (Clonetics). The cells were examined either non-synchronized or synchronized. For synchronization, the cells were treated with 2 mM thymidine for 16 hours, then with 0.25 mM thymidine/deoxycytidine for 9 hours, and then with 0.5 μg/ml aphidicolin for 20–24 hours. The cells were washed three times with PBS between each step [Janss et al., 1998, Exp. Cell Res., 243:29–38]. To induce mitotic stress, synchronized or non-synchronized cells were exposed to 0.5 μg/ml nocodazole, 5 μM of the TAXOL™ drug or 0.5 μg/ml colcemid. Cells were grown on 8-well culture slides coated with human fibronectin (Becton Dickinson) and were examined as either non-synchronized or synchronized cells. […] The slides were sealed with coverslips using Fluoromount-G (Upstate Biotechnology) and visualized with a fluorescence microscope (Leica). […] Progression through the cell cycle was monitored by measuring the mitotic index and by flow cytometric analysis of the DNA content of the cells.

[4] = test system: DLD1 cells; test: Mitotic index of unsynchronized DLD1 cells stably expressing Chfr or Chfr-A325, exposed to nocodazole; settings: stably transfected unsynchronized DLD1 cells
Description: To determine whether ubiquitin-protein ligase activity is required for checkpoint function, the Chfr mutant that substitutes Cys325 of the ring finger with Ala was stably-expressed in DLD1 cells. These cells were then exposed to mitotic stress and examined for entry into metaphase. The mitotic index of unsynchronized DLD1 cells exposed to nocodazole is high, indicating the absence of a checkpoint that would delay entry into metaphase in response to mitotic stress.

B1: wild-type Chfr: 664 amino acid human checkpoint protein with FHA and ring finger domains, SEQ ID NO: 2; HA-tagged when expressed in cells (protein, listed as Homo sapiens)
chain: MERPEEGKQSPPPQPWGRLLRLGAEEGEPHVLLRKREWTIGRRRGCDLSFPSNKLVSGDHCRIVVDEKSGQVTLEDTSTSGTVINKLKVVKKQTCPLQTGDVIYLVYRKNEPEHNVAYLYESLSEKQGMTQESFEANKENVFHGTKDTSGAGAGRGADPRVPPSSPATQVCFEEPQPSTSTSDLFPTASASSTEPSPAGRERSSSCGSGGGGISPKGSGPSVASDEVSSFASALPDRKTASFSSLEPQDQEDLEPVKKKMRGDGDLDLNGQLLVAQPRRNAQTVHEDVRAAAGKPDKMEETLTCIICQDLLHDCVSLQPCMHTFCAACYSGWMERSSLCPTCRCPVERICKNHILNNLVEAYLIQHPDKSRSEEDVQSMDARNKITQDMLQPKVRRSFSDEEGSSEDLLELSDVDSESSDISQPYVVCRQCPEYRRQAAQPPHCPAPEGEPGAPQALGDAPSTSVSLTTAVQDYVCPLQGSHALCTCCFQPMPDRRAEREQDPRVAPQQCAVCLQPFCHLYWGCTRTGCYGCLAPFCELNLGDKCLDGVLNNNSYESDILKNYLATRGLTWKNMLTESLVALQRGVFLLSDYRVTGDTVLCYCCGLRSFRELTYQYRQNIPASELPVAVTSRPDCYWGRNCRTQVKAHHAMKFNHICEQTRFKN
modifications: HA tag when expressed
notes: HA-tagged when expressed in cells
[1]
  mitotic index in response to nocodazole: low mitotic index
[2]
  effect on mitotic index compared to cells transfected with empty vector: no effect
[3]
  entry into metaphase in response to mitotic stress: delays entry into metaphase
[4]
  mitotic index after exposure to nocodazole: low mitotic index

— patent publication US7176293B1, “Compositions and methods to enhance sensitivity of cancer cells to mitotic stress” (The Wistar Institute of Anatomy and Biology, priority 1999, dated 2007)
